Experimental data from paper PMC11098746 (2024).

Tests used:
Assay in all cases: AVEXIS screen signal:noise (double-corrected)
ADP372 = target: T1, ADP372
T1 chain: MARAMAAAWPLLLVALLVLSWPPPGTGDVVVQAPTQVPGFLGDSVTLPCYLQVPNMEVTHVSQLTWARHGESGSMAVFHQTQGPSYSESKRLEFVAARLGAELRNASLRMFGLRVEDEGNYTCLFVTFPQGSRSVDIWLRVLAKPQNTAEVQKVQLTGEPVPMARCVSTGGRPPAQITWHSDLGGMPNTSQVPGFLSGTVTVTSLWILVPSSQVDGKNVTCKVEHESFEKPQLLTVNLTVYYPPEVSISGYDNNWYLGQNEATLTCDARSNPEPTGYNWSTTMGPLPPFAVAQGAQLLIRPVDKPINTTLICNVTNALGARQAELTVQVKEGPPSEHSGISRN

ADP150 = target: T2, ADP150
T2 chain: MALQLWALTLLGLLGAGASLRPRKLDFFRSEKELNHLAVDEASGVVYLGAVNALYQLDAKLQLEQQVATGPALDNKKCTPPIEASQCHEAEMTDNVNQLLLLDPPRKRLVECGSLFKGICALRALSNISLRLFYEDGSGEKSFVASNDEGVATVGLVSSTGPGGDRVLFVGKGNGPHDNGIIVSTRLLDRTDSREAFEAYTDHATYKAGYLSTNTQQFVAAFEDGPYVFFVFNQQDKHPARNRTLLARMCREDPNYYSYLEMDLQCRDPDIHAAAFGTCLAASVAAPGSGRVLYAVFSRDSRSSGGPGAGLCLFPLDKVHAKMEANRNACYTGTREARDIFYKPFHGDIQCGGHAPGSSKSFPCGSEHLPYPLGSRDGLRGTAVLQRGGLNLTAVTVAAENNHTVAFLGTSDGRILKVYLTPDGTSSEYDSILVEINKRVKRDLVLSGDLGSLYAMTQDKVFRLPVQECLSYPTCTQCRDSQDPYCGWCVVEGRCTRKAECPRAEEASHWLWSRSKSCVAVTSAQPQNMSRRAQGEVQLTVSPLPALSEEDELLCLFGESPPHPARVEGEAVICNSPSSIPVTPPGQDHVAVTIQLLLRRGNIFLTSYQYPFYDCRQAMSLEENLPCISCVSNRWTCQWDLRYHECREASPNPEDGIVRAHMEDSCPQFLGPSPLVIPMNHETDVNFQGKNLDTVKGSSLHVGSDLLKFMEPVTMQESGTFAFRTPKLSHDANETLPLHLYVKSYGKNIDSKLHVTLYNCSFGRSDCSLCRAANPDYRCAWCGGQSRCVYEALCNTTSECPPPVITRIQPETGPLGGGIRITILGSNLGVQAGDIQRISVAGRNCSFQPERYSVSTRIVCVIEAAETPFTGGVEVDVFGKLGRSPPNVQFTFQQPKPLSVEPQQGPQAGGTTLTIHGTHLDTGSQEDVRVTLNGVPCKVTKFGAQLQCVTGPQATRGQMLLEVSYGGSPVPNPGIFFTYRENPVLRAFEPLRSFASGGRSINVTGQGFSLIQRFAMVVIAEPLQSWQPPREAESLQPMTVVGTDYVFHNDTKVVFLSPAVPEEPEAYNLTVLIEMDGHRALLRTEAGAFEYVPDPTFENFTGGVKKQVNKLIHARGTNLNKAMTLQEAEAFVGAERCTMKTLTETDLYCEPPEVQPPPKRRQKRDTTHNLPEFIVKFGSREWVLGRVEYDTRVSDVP

ADP103 = target: T3, ADP103
T3 chain: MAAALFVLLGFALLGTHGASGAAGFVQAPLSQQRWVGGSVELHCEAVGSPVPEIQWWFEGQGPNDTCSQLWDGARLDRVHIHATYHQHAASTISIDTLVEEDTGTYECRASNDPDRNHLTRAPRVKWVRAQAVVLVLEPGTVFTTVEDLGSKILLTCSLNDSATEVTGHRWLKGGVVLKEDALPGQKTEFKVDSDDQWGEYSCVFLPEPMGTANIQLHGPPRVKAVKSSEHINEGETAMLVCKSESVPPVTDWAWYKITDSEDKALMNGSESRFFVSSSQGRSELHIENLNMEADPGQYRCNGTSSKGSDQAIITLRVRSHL

ADP112 = target: ADP112
ADP110 = target: ADP110
ADP133 = target: T4, ADP133
T4 chain: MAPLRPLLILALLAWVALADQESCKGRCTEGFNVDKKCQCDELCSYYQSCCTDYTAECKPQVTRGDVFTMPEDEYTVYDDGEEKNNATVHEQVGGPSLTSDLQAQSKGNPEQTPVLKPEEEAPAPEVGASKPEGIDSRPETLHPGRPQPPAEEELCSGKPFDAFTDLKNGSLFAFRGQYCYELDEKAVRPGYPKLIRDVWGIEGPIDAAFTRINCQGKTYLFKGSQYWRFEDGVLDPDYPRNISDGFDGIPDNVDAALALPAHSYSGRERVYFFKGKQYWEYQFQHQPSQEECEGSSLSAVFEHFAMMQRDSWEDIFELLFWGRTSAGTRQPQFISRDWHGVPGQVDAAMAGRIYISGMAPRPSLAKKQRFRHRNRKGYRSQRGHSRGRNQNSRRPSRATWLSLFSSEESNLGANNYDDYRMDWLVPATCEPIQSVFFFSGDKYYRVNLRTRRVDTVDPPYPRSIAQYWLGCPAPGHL

ADP315 = target: T5, ADP315
T5 chain: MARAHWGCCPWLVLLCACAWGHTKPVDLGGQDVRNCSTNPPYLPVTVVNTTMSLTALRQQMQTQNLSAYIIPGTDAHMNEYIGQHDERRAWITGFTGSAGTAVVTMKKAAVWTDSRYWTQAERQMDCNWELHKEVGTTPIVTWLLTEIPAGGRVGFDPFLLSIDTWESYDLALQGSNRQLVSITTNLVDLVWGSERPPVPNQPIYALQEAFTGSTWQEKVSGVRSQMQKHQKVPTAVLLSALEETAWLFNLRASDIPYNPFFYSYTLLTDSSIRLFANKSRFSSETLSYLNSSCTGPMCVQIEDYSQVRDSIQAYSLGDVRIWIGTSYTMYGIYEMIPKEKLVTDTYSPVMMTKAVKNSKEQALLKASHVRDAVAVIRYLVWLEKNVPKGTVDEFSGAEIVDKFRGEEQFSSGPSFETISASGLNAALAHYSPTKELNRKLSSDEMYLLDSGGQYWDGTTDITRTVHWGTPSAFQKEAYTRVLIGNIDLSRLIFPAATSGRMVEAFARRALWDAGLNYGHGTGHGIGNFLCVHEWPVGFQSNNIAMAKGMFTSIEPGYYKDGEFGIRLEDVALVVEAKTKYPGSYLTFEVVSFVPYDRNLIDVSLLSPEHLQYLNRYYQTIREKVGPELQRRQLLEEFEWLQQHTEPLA

ADP323 = target: ADP323

B1: ADP178 (protein)
chain: SDTFRVFEDFDVRRKNKIWCCNLNHEKSYFHNKAINTAYKNRVLKESILLNLDLDMKKYKDNIITRKKTPENIYKEIYENNYEMKYDEDIPNNMAEEKRDEKEVIEHLEIDEKNGKQYKSDINKPVSLSHLKQYKNIYVNNNNKINKKKSIDKHLPSYNLERKNNKYLNFLLVDNRNEAYTFMVPMKFYINHEMYNIADEEYNKLMEDNSVDVYLNNILVEYKYENFEIKEGEVDGEVEGEGEVEGEVEGEVKGKVVEGIENNMNEEEKYNKDNKDKENQINSNGQDENTEFQENDNNDAVIMKYT
modifications: bait human Fc-tagged dimer; N-glycosylation sequons mutated in Plasmodium baits
- binding score (ADP372): 5.47
- binding score (ADP150): 8.31
- binding score (ADP103): 10.2

B2: ADP189 (protein)
chain: NNIAHKEDDCGASELAIKKLQELKKFELDILKDFIKKDTDHTDMYKRYHCISSDFLKNTKQEDKKEDNYAKKEDKKDIENSANYIINNKNEKISFINKIISFVGMWNYNKYGNNIQESKNKINIYNNNNNKAENELLYNKEDYTNHIPTNENPNSYMQLSAFNLAKKSMFLGGKDNAAQNFEVGNYGSFYMIFGARNTDYPWACSCDTLQLEEYKEKKRSYVLCSNQLDMSIQNSDLFCNPKN
modifications: bait human Fc-tagged dimer; N-glycosylation sequons mutated in Plasmodium baits
- binding score (ADP112): 7.26
- binding score (ADP110): 34.1

B3: ADP173 (protein)
chain: EVESSDSTSFLNLISGQSSSNSDDTVSSSDSRGVVASVSGTVDSDVSRTDSTGNVNSKNSELSETRQNSVEQNNNANSADNSIKIKSAFLKENVGVKITGPCDEGFGLVMVPHIIINVDTRNTDIQLGKKSSEINYGIKLRKKGKDEYEEKVGIDLLKNVCETGKNFKFVAYIKGDELIIKWKVIEEGNIPIDIKKFKIKRMSPPITSIQVFSSMSDEKSFVLENKNYVVTNNMPEKCEALATNCFLSGNIDIEKCYQCSLLVENDAKSDVCYNFISRENKEKLNEERFKVKGSTEYEESVESELKGAIDLLISSFYKSDGENGENVLISFEDLNSALEDDIINFCSLLKLVDLSGTFMNHQIGTTADAFNNIVKLLKEHKEEDEFVLRTKLRNPALCMKNVDDWVKSRCGLLTSDDSYVVIKKNSDTNGKNENNEANDEEYDGVIDLSTNENGNVKSIQFNDDIYCNDDYCNRWKNENNCISKIGVEDQGNCASSWAFASKLHFETLRCMKGYDHLGISALYLTNCAKGKISKRCTEGGNPAEFLEIVSNSGFLPTEFDYPYFYALVENSCPSGLNKWINLWEDVKLFDYKYEPNSIGSKGYSVYKSEMFKDNMDEYVKMIKSEIKNKGSVIAYINAQSVLTYDFNGKNILNMCGSKTTDHSINVIGYGHYKNKEGEEKSYWLVRNSWGYYWGDEGNFKVDMYGPSNCNYHFINTVLVFNIDIPMMNNNENNKKGLYNYFPKYTHEFYHNFYDQNFGSDNKISLINSNGANKNDVNNAYTVHGQSGETEVQPSQLRSTANQDSNRGAVTSDPLRTQPETTSTSVKKMDVFQVLKHVKNSKIKVGLIKYDNDDEIGAHHSCTRAYSFDPEKYDECVEFCRKNWEQCKDKPSPGFCLTKLDESKGCFFCYV
modifications: bait human Fc-tagged dimer; N-glycosylation sequons mutated in Plasmodium baits
- binding score (ADP133): 6.59
- binding score (ADP315): 5.31
- binding score (ADP323): 7.35
- binding score (ADP103): 7.09
